Values quoted from earlier work as cited in publication PMC7736282.

Molecular target: Lys175 (UniProt position 175, VASSLKWRCPF)
Experiment: NMR

In the case of “VP39, cap-specific mRNA (nucleoside-2'-O-)-methyltransferase / poly(A) polymerase small subunit (Vaccinia virus)”, the pKa is listed as 8.5.
